According to PMC3247843:

Target: soluble human FcRn (human) (UniProt P55899)
Experiment: SPR

Chain of UniProt P55899 (P55899 24-297, chain 1 of 2): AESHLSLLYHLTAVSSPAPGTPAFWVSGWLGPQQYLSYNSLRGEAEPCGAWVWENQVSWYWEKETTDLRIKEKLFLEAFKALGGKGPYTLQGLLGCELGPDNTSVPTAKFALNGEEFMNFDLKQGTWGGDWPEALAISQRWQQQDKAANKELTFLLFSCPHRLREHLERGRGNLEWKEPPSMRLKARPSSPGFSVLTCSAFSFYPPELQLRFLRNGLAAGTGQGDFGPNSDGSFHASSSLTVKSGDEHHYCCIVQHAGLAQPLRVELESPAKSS
Chain of UniProt P55899 (P61769 21-119, chain 2 of 2, further chain): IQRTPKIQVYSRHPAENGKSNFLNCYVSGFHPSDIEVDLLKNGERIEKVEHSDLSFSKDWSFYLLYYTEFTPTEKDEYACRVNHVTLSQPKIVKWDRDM

Row | Substance | KD relative to WT IgG1 (% higher than the KD of WT IgG1) | KD relative to WT IgG1 (fold of the KD of WT IgG1)
1 | recombinant human IgG1–H435R (antibody) | 50 | –
2 | recombinant human IgG3 (anti-Streptococcus pneumoniae serotype 6) (antibody) | – | 2
